{"source": "patent US20060148055A1", "about": "(published 2006)", "binders": {"B1": {"name": "multiple antigenic peptide SEQ ID NO: 1 MDA-conjugated (mapped peptide) (peptide)", "peptide": "ALQYKLEGTTR", "modifications": "also: multiple antigenic peptide, branching core and copy number not given here, MDA-conjugated, site not given here"}}, "note": "No end group written: not given here. MDA = malondialdehyde"}
{"molecular_target": "scavenger LDL receptor in monocytes", "experiment": "cell-based or functional assay"}
{"binder": "ALQYK(MDA)LEGTTR (not fully specified)", "note": "[peptide SEQ ID NO: 1 MDA-conjugated]", "Mean fluorescence (Ex 520 nm, Em 590 nm) of DiI-labelled oxidised LDL (50 ug) taken up by lipid-starved U937 monocytes with 500 ug peptide as competitor; oxidised LDL alone 3433, Control 1657": "2130 fluorescence (unit not printed)"}
{"binder": "B1", "Mean fluorescence (Ex 520 nm, Em 590 nm) of DiI-labelled oxidised LDL (50 ug) taken up by lipid-starved U937 monocytes with 500 ug peptide as competitor; oxidised LDL alone 3433, Control 1657": "2610 fluorescence (unit not printed)"}
{"binder": "RLTRKRGLKLA", "note": "[peptide SEQ ID NO: 2]", "Mean fluorescence (Ex 520 nm, Em 590 nm) of DiI-labelled oxidised LDL (50 ug) taken up by lipid-starved U937 monocytes with 500 ug peptide as competitor; oxidised LDL alone 3433, Control 1657": "1410 fluorescence (unit not printed)"}
{"binder": "RLTRK(MDA)RGLKLA", "note": "[peptide SEQ ID NO: 2 MDA-conjugated]", "Mean fluorescence (Ex 520 nm, Em 590 nm) of DiI-labelled oxidised LDL (50 ug) taken up by lipid-starved U937 monocytes with 500 ug peptide as competitor; oxidised LDL alone 3433, Control 1657": "2450 fluorescence (unit not printed)"}
{"binder": "ALSLSNKFVEG", "note": "[peptide SEQ ID NO: 3]", "Mean fluorescence (Ex 520 nm, Em 590 nm) of DiI-labelled oxidised LDL (50 ug) taken up by lipid-starved U937 monocytes with 500 ug peptide as competitor; oxidised LDL alone 3433, Control 1657": "1760 fluorescence (unit not printed)"}
{"binder": "ALSLSNK(MDA)FVEG", "note": "[peptide SEQ ID NO: 3 MDA-conjugated]", "Mean fluorescence (Ex 520 nm, Em 590 nm) of DiI-labelled oxidised LDL (50 ug) taken up by lipid-starved U937 monocytes with 500 ug peptide as competitor; oxidised LDL alone 3433, Control 1657": "2000 fluorescence (unit not printed)"}
